The values that follow come from the supplement of paper PMC12455559.

± gives the standard deviation of the averaged measurements. Some results are limits rather than exact numbers.

Series [1] can be described thus: PET hydrolysis, aromatic products released after 48 h (umol product/mg enzyme); higher = more PET depolymerization activity. The method in brief:
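Amorphous PET film or crystalline PET powder (3.5 mg) in 450 μL of 50 mM NaCitrate (pH 4.5, 5.5), 50 mM NaPhosphate (pH 6.5, 7.5) or glycine (pH 8.5) received 5 μg (50 μL) of candidate enzyme. That enzyme was purified on nickel beads and freed of its tag by SUMO cleavage. After 48 h at 40 or 60 °C in sealed plates without shaking, absorbance of the supernatant at 260 and 280 nm was read against buffer blanks. PET hydrolysis activity is this aromatic product expressed per mg enzyme.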

A short description of series [2]: melting temperature (DSF); higher = more thermostable. In short, it runs like this:
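On a Bio-Rad CFX96, fluorescence of 45 μL enzyme (0 to 0.3 mg/mL) mixed with 5 μL 5X Sypro Orange in sealed PCR plates was followed from 25 °C through 250 cycles of 0.3 °C, with a 0.3 °C/s ramp. The enzymes had been expressed in E. coli C41(DE3), taken up on nickel beads and released by SUMO protease. Melting temperature, measured by differential scanning fluorimetry, is the value given.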

Series [3] can be described thus: purified protein yield per well (BCA); higher = higher soluble expression. The method in brief: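 Purified protein yield per well is reported, as measured by the Pierce Rapid Gold BCA kit. The enzymes came from E. coli C41(DE3) autoinduction cultures of 2 mL with 100 µg/mL kanamycin, held at 37 °C for 2 h and 18 °C for 40 h, then lysed and purified on Ni-charged magnetic beads with SUMO protease release. The detection threshold is 25 ug (0.1 mg/mL), and lower values are under it.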

The mark [4] stands for this setting: substrate: cryPow, 40 °C, pH 4.5.
Setting [5] is: substrate: cryPow, 40 °C, pH 5.5.
Where [6] appears, read: substrate: cryPow, 40 °C, pH 6.5.
Where [7] appears, read: substrate: cryPow, 40 °C, pH 7.5.
The mark [8] stands for this setting: substrate: cryPow, 60 °C, pH 4.5.
The mark [9] stands for this setting: substrate: cryPow, 60 °C, pH 5.5.
Where [10] appears, read: substrate: cryPow, 60 °C, pH 6.5.
The mark [11] stands for this setting: substrate: cryPow, 60 °C, pH 7.5.
[12] abbreviates: substrate: aFilm, 40 °C, pH 5.5.
Where [13] appears, read: substrate: aFilm, 40 °C, pH 6.5.
Where [14] appears, read: substrate: aFilm, 40 °C, pH 7.5.
[15] abbreviates: substrate: aFilm, 60 °C, pH 5.5.
[16] abbreviates: substrate: aFilm, 60 °C, pH 6.5.
Setting [17] is: substrate: aFilm, 60 °C, pH 7.5.
Setting [18] is: substrate: aFilm, 40 °C, pH 4.5.
The mark [19] stands for this setting: substrate: aFilm, 60 °C, pH 4.5.

Turning to “ADNPYQRGPDPTRTSVATERGPFANTSVSVPSGYGFNGGRIYYPTDTSQGTFGAIAISPGYTALFSAELAWMGPWLASHGFVVIGIETNSRNDFDTARGTQLLAALDYLTQQSPVRDRIDPNRLAVSGHSMGGGGALSAAMRRSSLKAVVGIAPYSPSSNLANDRVPTMIFSGQADTVVTPSYAMGLYNSIPAGTKSAYLEVAGGDHGFMVGRSNPVLIRTMLPFLKIFIDNDARYSQFLCPLLDNSGVVTYRSTCPFLPTTPTTPPPTG [ESM065]”, the PET hydrolysis was 21 in series [1] (setting [4]); 29 in series [1] (setting [5]); 7 in series [1] (setting [6]); less than 3 in series [1] (setting [7]); less than 3 in series [1] (setting [8]); 4 in series [1] (setting [9]). In addition, the PET hydrolysis in series [1] (setting [10]) and in series [1] (setting [11]) was less than 3 in each case. Further, the melting temperature in series [2] was found to be 67.9 C. For the same sequence, in series [3], the “purified protein yield per well” value stood at 250 µg.
For “GETAQTTDVSAQSQFQRGPNPTVSSIEARTGHYRTSTTRVSSFASGFGGGTIYYPTTTSDGTFGGVAVAPGYTASSSTMDWLGPRIASQGFVVFVIDTNTRLDQPSSRGRQLLAALDYLTERSSERHRVDSNRLAVMGHSMGGGGALEATISRPSLKASIPLTPWNLTKNWSRVTTPTLIVGAENDSVASVRSHSIPFYTSLSSSTDRMYVELDGASHFAPNVSNTTIAKYSISWLKRFVDDDTRYDQFLCPLPNERAISDIRGNCPR [DP090]”, the PET hydrolysis was less than 3 in series [1] (setting [12]); 5 ± 7.1 in series [1] (setting [13]); 12 ± 7.1 in series [1] (setting [14]); 22 ± 17 in series [1] (substrate: aFilm, 40 °C, pH 8.5); less than 3 in series [1] (setting [15]); less than 3 in series [1] (setting [16]). The PET hydrolysis in series [1] (setting [17]) was less than 3; in series [1] (substrate: aFilm, 60 °C, pH 8.5), less than 3; in series [1] (setting [5]), less than 3; in series [1] (setting [6]) it was 7; in series [1] (setting [7]), 12.5 ± 9.2; in series [1] (substrate: cryPow, 40 °C, pH 8.5), 25.5 ± 0.71. Moreover, the PET hydrolysis in series [1] (setting [9]) was less than 3; in series [1] (setting [10]) it was less than 3; in series [1] (setting [11]), 2 ± 2.8; in series [1] (substrate: cryPow, 60 °C, pH 8.5), 2 ± 2.8. The sequence also had a melting temperature in series [2] of 51.4 C. Also, the “purified protein yield per well” value in series [3] was determined as 423 µg.
With “MAENPYERGPAPTTSSIEASRGSFATSTVTVSRLAVSGFGGGTIYYPTSTTAGTFGAISIAPGFTALQSSIAWLGPRLASQGFVVFTIDTLTTSDQPDSRGRQLLAALDYLTQQSSVRSRIDSSRLGVVGHSMGGGGTLEAARSRPSLQAAIPLTGWNLTKTWSTVRVPTLVVGAQADTVAPVASHSIPFYNSLPSSLDKAYLELRGASHFAPNSSNTTIAKYTLSWLKRFIDNDTRYEQFLCPIPSTSLSISDYRGNCPHNG [TEP182]”, the PET hydrolysis in series [1] (setting [18]), in series [1] (setting [12]), in series [1] (setting [13]), in series [1] (setting [14]), in series [1] (setting [19]) and in series [1] (setting [15]) was less than 3 in each case. The PET hydrolysis in series [1] (setting [16]) was less than 3; in series [1] (setting [17]), less than 3; in series [1] (setting [4]) it was less than 3; in series [1] (setting [5]) it was 6; in series [1] (setting [6]), 11; in series [1] (setting [7]), 17.5 ± 2.1. Further, the PET hydrolysis is less than 3 in series [1] (setting [8]), 4 in series [1] (setting [9]), 12.5 ± 0.71 in series [1] (setting [10]) and 15.5 ± 0.71 in series [1] (setting [11]). This sequence yielded a melting temperature in series [2] of 53.5 C. In series [3], the “purified protein yield per well” value was 290 µg.
For “ADNPYQRGPDPTRTSVAAVNGPFANTSVSVPTGYGFNGGRIYYPTDTSQGTFGAIAISPGYTALFSAELAWMGPWLASHGFVVIGIETNSRNDFDTARGTQLLAALDYLTQQSPVRDRVDPNRLAVSGHSMGGGGALSAAIRRSSLKAVVGIAPYSPSSNLANDRVPTMIFSGQADTVVTPSYATGLYNSLPATTESVYLEVAGADHGFMVGRSNPVMIRTMLPFVKMFIDNDTRYSQFLCPLLDSSGVVTYRSTCPLLPPAPTTPPPTGTPTPTPSSNPTTPPTTPPSTPTA [ESM061]”, the PET hydrolysis in series [1] (setting [18]), in series [1] (setting [12]), in series [1] (setting [13]), in series [1] (setting [14]), in series [1] (setting [19]) and in series [1] (setting [15]) was less than 3 each time. Moreover, the PET hydrolysis in series [1] (setting [16]) was less than 3; in series [1] (setting [17]), less than 3; in series [1] (setting [4]), 11 ± 2.8; in series [1] (setting [5]), 23 ± 1.4; in series [1] (setting [6]), 5; in series [1] (setting [7]), less than 3. The PET hydrolysis in series [1] (setting [8]), in series [1] (setting [9]), in series [1] (setting [10]) and in series [1] (setting [11]) was less than 3 throughout. Also, in series [2], the melting temperature was 62.8 C. In addition, the “purified protein yield per well” value in series [3] was found to be 408 µg.
Regarding “ADNPYQRGPNPTVASVAATRGTFATAQTSVPAGNGFGGGVIYYPTDTSQGTFGGVAIVPGYSALFANEEAWMGPWLASFGFVVIGIETNSRTDSADARGTQLLAALDYLTQRSSVRDRVDPNRLSVVGHSAGGAGVLSAILRRPSLKAGIGLAPGSPVGDYSLSNDRVPTMFISGQRDTTVTQSYLNGLYTTIPASTPSAWVEITGVDHLFATRANTTEMRVLIPWLKIWVDNDTRYTQFLCPLADSTGISMYRNKCPYVPPGGSSPSPSPSPSSSPSRFPSPSPSPSPSQSPSQSPSASPSPPPPGACVAEYRTVNSWPGGYQGEVTVTAGGSAVNGWTVRWTLGSGQTITQLWNGTLSTSGSAVTVKNASFNGSIPASGSATFGFLATGTPSTPSLTCTSP [ESM015]”, the PET hydrolysis in series [1] (setting [4]), in series [1] (setting [5]), in series [1] (setting [6]), in series [1] (setting [7]), in series [1] (setting [8]) and in series [1] (setting [9]) was less than 3 in each case. In addition, the PET hydrolysis in series [1] (setting [10]) and in series [1] (setting [11]) was less than 3 in each case. This sequence came in with a melting temperature in series [2] of 60.7 C. Further, in series [3], the “purified protein yield per well” value was determined as 540 µg.
Take “AENPYERGPAPTTASIEALRGPFATAETTVSSLSVRGFGGGTIHYPTSTAEGTFGAVAVAPGYTASQSSLSWLGPRLASQGFVVFVIDTNSRYDQPASRGDQLLAALDYLTTSSSVRGRIDASRLGVMGHSMGGGGALEATKDRPSLQASIPLTPWNTTKTWSTVRTPTLVVGAEDDSVAPVRTHAEPFYEGLPSTLDKAYLELAGASHFAPNSSNTTIAKYSIAWLKRFVDDDTRYEQFLCPAPRGTAISEYRDTCPHP [TEP110]”: the PET hydrolysis in series [1] (setting [4]), in series [1] (setting [5]), in series [1] (setting [6]) and in series [1] (setting [7]) was less than 3 throughout. Moreover, the melting temperature in series [2] was determined as 47.2 C. In addition, the “purified protein yield per well” value in series [3] was found to be 48.9 µg.
